Consider eight molecules from US11471462B2, “Compositions and methods for detecting and treating diabetes” (THE BROAD INSTITUTE, INC., priority 2016, dated 2022).

For the test, the system named is SLC16A11. The test is described as follows: SLC16A11 protein-protein interaction study (immunoprecipitation, quantitative mass spectrometry). The conditions noted are these: putative SLC16A11^REF interaction partners; immunoprecipitation from HEK293T cells vs empty vector control; Blandt-Altman. On the set-up: species or system human. The source says:
Alternatively, these variants may result in reduced transport because they disrupt protein-protein interactions responsible for correct SLC16A11 function. To explore this possibility, SLC16A11 was immunoprecipitated from HEK293T cells expressing either REF or T2D risk SLC16A11-V5 or empty vector control and quantitative mass spectrometry was used to define the SLC16A11 interactome.
Another mechanism through which the variants could affect activity is through disruption of protein-protein interactions. To explore this possibility, quantitative mass spectrometry-based protein-protein interaction studies were performed to define the SLC16A11 interactome and evaluate if the T2D risk coding variants alter any interactions.
Beads were then washed once with lysis buffer and three times with wash buffer. After the last wash, residual wash buffer was removed, 10 μL fresh wash buffer was added, and beads were stored at −80° C. until analysis by the Proteomics Platform at the Broad Institute, as detailed in the “Proteomics Methods for SLC16A11 Protein Interaction Studies” below.
The beads from immunopurification were washed once with IP lysis buffer, then three times with PBS, the three different lysates of each replicate were resuspended in 90 uL digestion buffer (2M Urea, 50 mM Tris HCl), 2 ug of sequencing grade trypsin added, 1 hour shaking at 700 rpm. The supernatant was removed and placed in a fresh tube. The beads were then washed twice with 50 uL digestion buffer and combined with the supernatant. The combined supernatants were reduced (2 uL 500 mM DTT, 30 minutes, RT), alkylated (4 uL 500 mM IAA, 45 minutes, dark) and a longer overnight digestion performed: 2 ug (4 uL) trypsin, shake o/n, The samples were then quenched with 20 uL 10% FA and desalted on 10 mg SepPak columns.
Desalted peptides were labelled with iTRAQ reagents according to the manufacturer's instructions (AB Sciex, Foster City, Calif.). Peptides were dissolved in 30 μl of 0.5 M TEAB pH 8.5 solution and labeling reagent was added in 70 ul of ethanol. After 1 h incubation the reaction was stopped with 50 mM Tris/HCl pH 7.5. Differentially labelled peptides were mixed and subsequently desalted on 10 mg SepPak columns.
Reconstituted peptides were separated on an online nanoflow EASY-nLC 1000 UHPLC system (Thermo Fisher Scientific) and analyzed on a benchtop Orbitrap Q Exactive Plus mass spectrometer (Thermo Fisher Scientific). The peptide samples were injected onto a capillary column (Picofrit with 10 μm tip opening/75 μm diameter, New Objective, PF360-75-10-N-5) packed in-house with 20 cm C18 silica material (1.9 μm ReproSil-Pur C18-AQ medium, Dr. Maisch GmbH, r119.aq). The UHPLC setup was connected with a custom-fit microadapting tee (360 μm, IDEX Health & Science, UH-753), and capillary columns were heated to 50° C. in column heater sleeves (Phoenix-ST) to reduce backpressure during UHPLC separation. Injected peptides were separated at a flow rate of 200 nL/min with a linear 80 min gradient from 100% solvent A (3% acetonitrile, 0.1% formic acid) to 30% solvent B (90% acetonitrile, 0.1% formic acid), followed by a linear 6 min gradient from 30% solvent B to 90% solvent B. Each sample was run for 120 min, including sample loading and column equilibration times. The Q Exactive instrument was operated in the data-dependent mode acquiring HCD MS/MS scans (R=17,500) after each MS1 scan (R=70,000) on the 12 top most abundant ions using an MS1 ion target of 3×10^6 ions and an MS2 target of 5×10^4 ions. The maximum ion time utilized for the MS/MS scans was 120 ms; the HCD-normalized collision energy was set to 27; the dynamic exclusion time was set to 20 s, and the peptide match and isotope exclusion functions were enabled.
All mass spectra were processed using the Spectrum Mill software package v6.0 pre-release (Agilent Technologies) which includes modules developed by us for iTRAQ-based quantification. […]

B1: SLC25A22 (protein)
chain: MADKQISLPAKLINGGIAGLIGVTCVFPIDLAKTRLQNQQNGQRVYTSMSDCLIKTVRSEGYFGMYRGAAVNLTLVTPEKAIKLAANDFFRHQLSKDGQKLTLLKEMLAGCGAGTCQVIVTTPMEMLKIQLQDAGRIAAQRKILAAQGQLSAQGGAQPSVEAPAAPRPTATQLTRDLLRSRGIAGLYKGLGATLLRDVPFSVVYFPLFANLNQLGRPASEEKSPFYVSFLAGCVAGSAAAVAVNPCDVVKTRLQSLQRGVNEDTYSGILDCARKILRHEGPSAFLKGAYCRALVIAPLFGIAQVVYFLGIAESLLGLLQDPQA
As to B1, the “BA log fold change” value worked out at 1.20.

B2: AGPAT6 (protein)
chain: VSFGIRKLYMKSLLKIFAWATLRMERGAKEKNHQLYKPYTNGIIAKDPTSLEEEIKEIRRSGSSKALDNTPEFELSDIFYFCRKGMETIMDDEVTKRFSAEELESWNLLSRTNYNFQYISLRLTVLWGLGVLIRYCFLLPLRIALAFTGISLLVVGTTVVGYLPNGRFKEFMSKHVHLMCYRICVRALTAIITYHDRENRPRNGGICVANHTSPIDVIILASDGYYAMVGQVHGGLMGVIQRAMVKACPHVWFERSEVKDRHLVAKRLTEHVQDKSKLPILIFPEGTCINNTSVMMFKKGSFEIGATVYPVAIKYDPQFGDAFWNSSKYGMVTYLLRMMTSWAIVCSVWYLPPMTREADEDAVQFANRVKSAIARQGGLVDLLWDGGLKREKVKDTFKEEQQKLYSKMIVGNHKDRSRS
Turning to B2, the “BA log fold change” value came out at 1.16.

B3: UBAC2 (protein)
chain: HCQKLFVYDLHAVKNDFQIWRLICGRIICLDLKDTFCSSLLIYNFRIFERRYGSRKFASFLLGSWVLSALFDFLLIEAMQYFFGITAASNLPSGFLAPVFALFVPFYCSIPRVQVAQILGPLSITNKTLIYILGLQLFTSGSYIWIVAISGLMSGLCYDSKMFQVHQVLCIPSWMAKFFSWTLEPIFSSSEPTSEARIGMGATLDIQRQQRMELLDRQLMFSQFAQGRRQRQQQGGMINWNRLFPPLRQRQNVNYQGGRQSEPAAPPLEVSEEQVARLMEMGFSRGDALEALRASNNDLNVATNFLLQH
As to B3, the “BA log fold change” value worked out at 1.21.

B4: LPCAT1 (protein)
chain: MRLRGCGPRAAPASSAGASDARLLAPPGRNPFVHELRLSALQKAQVALMTLTLFPVRLLVAAAMMLLAWPLALVASLGSAEKEPEQPPALWRKVVDFLLKAIMRTMWFAGGFHRVAVKGRQALPTEAAILTLAPHSSYFDAIPVTMTMSSIVMKAESRDIPIWGTLIQYIRPVFVSRSDQDSRRKTVEEIKRRAQSNGKWPQIMIFPEGTCTNRTCLITFKPGAFIPGAPVQPVVLRYPNKLDTITWTWQGPGALEILWLTLCQFHNQVEIEFLPVYSPSEEEKRNPALYASNVRRVMAEALGVSVTDYTFEDCQLALAEGQLRLPADTCLLEFARLVRGLGLKPEKLEKDLDRYSERARMKGGEKIGIAEFAASLEVPVSDLLEDMFSLFDESGSGEVDLRECVVALSVVCRPARTLDTIQLAFKMYGAQEDGSVGEGDLSCILKTALGVAELTVTDLFRAIDQEEKGKITFADFHRFAEMYPAFAEEYLYPDQTHFESCAETSPAPIPNGFCADFSPENSDAGRKPVRKKLD
In the case of B4, the “BA log fold change” value came out at 1.16.

B5: PPP6R3 (protein)
chain: MFWKFDLHSSSHIDTLLEREDVTLKELMDEEDVLQECKAQNRKLIEFLLKAECLEDLVSFIIEEPPQDMDEKIRYKYPNISCELLTSDVSQMNDRLGEDESLLMKLYSFLLNDSPLNPLLASFFSKVLSILISRKPEQIVDFLKKKHDFVDLIIKHIGTSAIMDLLLRLLTCIEPPQPRQDVLNWLNEEKIIQRLVEIVHPSQEEDRHSNASQSLCEIVRLSRDQMLQIQNSTEPDPLLATLEKQEIIEQLLSNIFHKEKNESAIVSAIQILLTLLETRRPTFEGHIEICPPGMSHSACSVNKSVLEAIRGRLGSFHELLLEPPKKSVMKTTWGVLDPPVGNTRLNVIRLISSLLQTNTSSINGDLMELNSIGVILNMFFKYTWNNFLHTQVEICIALILASPFENTENATITDQDSTGDNLLLKHLFQKCQLIERILEAWEMNEKKQAEGGRRHGYMGHLTRIANCIVHSTDKGPNSALVQQLIKDLPDEVRERWETFCTSSLGETNKRNTVDLVTTCHIHSSSDDEIDFKETGFSQDSSLQQAFSDYQMQQMTSNFIDQFGFNDEKFADQDDIGNVSFDRVSDINFTLNTNESGNIALFEACCKERIQQFDDGGSDEEDIWEEKHIAFTPESQRRSSSGSTDSEESTDSEEEDGAKQDLFEPSSANTEDKMEVDLSEPPNWSANFDVPMETTHGAPLDSVGSDVWSTEEPMPTKETGWASFSEFTSSLSTKDSLRSNSPVEMETSTEPMDPLTPSAAALAVQPEAAGSVAMEASSDGEEDAESTDKVTETVMNGGMKETLSLTVDAKTETAVFKRVLKSYREEGKLSTSQDAACKDAEECPETAEAKCAAPRPPSSSPEQRTGQPSAPGDTSVNGPV
Regarding B5, the “BA log fold change” value came to 1.18.

B6: TIMM23B (protein)
chain: MEGGGGSGDKTTGVLAGFFGAGEAGYSHADLAGVPLTGMNPLCPYLNVDPRYLVQDTDEFILPTGANKTWGRFELAFFTIGGCCMTGAAFGAMNGLRLGLKETQNMAWSKPGNVQILNMVTRQGALWANTLGSLALLYSAFGVIIEKTRGAEDDLNTVAAGTMTGMLYKCTVSEMALDSPFCVLLSGS
Take B6: the “BA log fold change” value is recorded as 1.22.

B7: FAF2 (protein)
chain: AAPEERDLTQEQTEKLLQFQDLTGIESMDQCRHTLEQHNWNIEAAVQDRLNEQEGVPSVFNPPPSRPLQVNTADHRIYSYVVSRPQPRGLLGWGYYLIMLPFRFTYYTILDIFRFALRFIRPDPRSRVTDPVGDIVSFMHSFEEKYGRAHPVFYQGTYSQALNDAKRELRFLLVYLHGDDHQDSDEFCRNTLCAPEVISLINTRMLFWACSTNKPEGYRVSQALRENTYPFLAMIMLKDRRMTVVGRLEGLIQPDDLINQLTFIMDANQTYLVSERLEREERNQTQVLRQQQDEAYLASLRADQEKERKKREERERKRRKEEEVQQQKLAEERRRQNLQEEKERKLECLPPEPSPDDPESVKIIFKLPNDSRVERRFHFSQSLTVIHDFLFSLKESPEKFQIEANFPRRVLPCIPSEEWPNPPTLQEAGLSHTEVLFVQDLTDE
Turning to B7, the “BA log fold change” value came to 1.23.

B8: PSMD12 (protein)
chain: ADGGSERADGRIVKMEVDYSATVDQRLPECAKLAKEGRLQEVIETLLSLEKQTRTASDMVSTSRILVAVVKMCYEAKEWDLLNENIMLLSKRRSQLKQAVAKMVQQCCTYVEEITDLPIKLRLIDTLRMVTEGKIYVEIERARLTKTLATIKEQNGDVKEAASILQELQVETYGSMEKKERVEFILEQMRLCLAVKDYIRTQIISKKINTKFFQEENTEKLKLKYYNLMIQLDQHEGSYLSICKHYRAIYDTPCIQAESEKWQQALKSVVLYVILAPFDNEQSDLVHRISGDKKLEEIPKYKDLLKLFTTMELMRWSTLVEDYGMELRKGSLESPATDVFGSTEEGEKRWKDLKNRVVEHNIRIMAKYYTRITMKRMAQLLDLSVDESEAFLSNLVVNKTIFAKVDRLAGIINFQRPKDPNNLLNDWSQKLNSLMSLVNKTTHLIAKEEMIHNLQ
For the molecule B8, the “BA log fold change” value is recorded as 1.18.
